Results: US5854042A, “Sugar-chain synthetase and process for producing the same” (The Institute of Physical and Chemical Research, priority 1993, dated 1998)
One block for each molecule: values may come before it.

Tests used:
[1] = target: Bovine submaxillary asialo-mucin (bovine)
[2] = target: Asialo-alpha 1 acid glycoprotein
[3] = target: alpha 1 acid glycoprotein
[4] = target: Bovine submaxillary mucin (bovine)
[5] = target: Asialo-fetuin (Bos taurus (Bovine)) (UniProt P12763)
[6] = target: Fetuin (Bos taurus (Bovine)) (UniProt P12763)
[7] = target: Bovine submaxillary asialo-mucin (bovine); remark: listed apart in the source
[8] = target: Asialo-alpha 1 acid glycoprotein; remark: listed apart in the source
[9] = target: alpha 1 acid glycoprotein; remark: listed apart in the source
[10] = target: Bovine submaxillary mucin (bovine); remark: listed apart in the source
[11] = target: Asialo-fetuin (Bos taurus (Bovine)) (UniProt P12763); remark: listed apart in the source
[12] = target: Fetuin (Bos taurus (Bovine)) (UniProt P12763); remark: listed apart in the source
[13] = substrate: CC(=O)N[C@H]1C(O)O[C@H](CO)[C@@H](O[C@@H]2O[C@H](CO)[C@H](O)[C@H](O)[C@H]2O)[C@@H]1O; assay: cells, lysate or membranes named; settings: other: renatured enzyme after removal of urea by dialysis
[14] = substrate: CC(=O)N[C@H]1[C@H]([C@H](O)[C@H](O)CO)O[C@](OP(=O)(O)OC[C@H]2O[C@@H](n3ccc(N)nc3=O)[C@H](O)[C@@H]2O)(C(=O)O)C[C@@H]1O; assay: Sialyltransferase assay, kinetic parameters (Km) of the renatured enzyme; format: biochemical, mouse; settings: other: renatured enzyme after removal of urea by dialysis; measured with N-acetyllactosamine as the acceptor
Description: Reaction mixture was added with 1 mg/ml bovine serum albumin, 1 μl of the enzyme solution, and 50 mM sodium cacodylate (pH 6.0) to a total volume of 10 μl, and incubation was continued at 37° C. for 1 h. Then, the samples were applied to silica gel60 HPTLC plate (Merck Germany) and developed with ethanol/pyridine/n-butanol/acetic acid/water (100:10:10:3:30) as a developing solvent. The radioactivity transferred on each plate was determined with a radio image analyzer BAS2000 (Fuji Photo Film, Japan, Lee, Y.-C. et al., Eur. J. Biochem., 216, 377-385, 1993).

[15] = substrate: CC(=O)N[C@H]1C(O)O[C@H](CO)[C@@H](O[C@@H]2O[C@H](CO)[C@H](O)[C@H](O)[C@H]2O)[C@@H]1O; assay: purified protein, by the assay type; settings: pH 6.0; 37.0 °C
[16] = substrate: CC(=O)N[C@H]1[C@H]([C@H](O)[C@H](O)CO)O[C@](OP(=O)(O)OC[C@H]2O[C@@H](n3ccc(N)nc3=O)[C@H](O)[C@@H]2O)(C(=O)O)C[C@@H]1O; assay: purified protein, by the assay type; settings: other: measured with N-acetyllactosamine as the acceptor; pH 6.0; 37.0 °C

Km (Asialo-orosomucoid): 400 µM
Relative Activity to Gal β 1,4GlcNAc (% of the control) [1]: < 2
Relative Activity to Gal β 1,4GlcNAc (relative to Gal β 1,4GlcNAc) [2]: 2.1
Relative Activity to Gal β 1,4GlcNAc (relative to Gal β 1,4GlcNAc) [3]: 0.1
Relative Activity to Gal β 1,4GlcNAc (% of the control) [4]: < 2
Relative Activity to Gal β 1,4GlcNAc (relative to Gal β 1,4GlcNAc) [5]: 1.5
Relative Activity to Gal β 1,4GlcNAc (relative to Gal β 1,4GlcNAc) [6]: 0.25
Molecule: Renatured mouse Gal beta 1,4GlcNAc alpha 2,6-sialyltransferase (from UniProt Q64685) (enzyme)

Km (Asialo-orosomucoid): 200 µM
Relative Activity to Gal β 1,4GlcNAc (% of the control) [1]: < 2
Relative Activity to Gal β 1,4GlcNAc (relative to Gal β 1,4GlcNAc) [2]: 1
Relative Activity to Gal β 1,4GlcNAc (relative to Gal β 1,4GlcNAc) [3]: 0.1
Relative Activity to Gal β 1,4GlcNAc (% of the control) [4]: < 2
Relative Activity to Gal β 1,4GlcNAc (relative to Gal β 1,4GlcNAc) [5]: 0.97
Relative Activity to Gal β 1,4GlcNAc (% of the control) [6]: < 2
Molecule: Rat liver Gal beta 1,4GlcNAc alpha 2,6-sialyltransferase (from UniProt P13721) (enzyme)

Further lines, the molecule ahead of its results:

Molecule: GalNAc alpha 2,6-sialyltransferase P-B3 (enzyme)
Acceptor substrate specificity, pmol/h/µl enzyme fraction ([14C]NeuAc transfer) [7]: 5.2 pmol/h/µL
Acceptor substrate specificity, pmol/h/µl enzyme fraction ([14C]NeuAc transfer) (Asialo-ovomucoid): 1 pmol/h/µL
Acceptor substrate specificity, pmol/h/µl enzyme fraction ([14C]NeuAc transfer) [8]: 1.2 pmol/h/µL
Acceptor substrate specificity, pmol/h/µl enzyme fraction ([14C]NeuAc transfer) [9]: < 0.5 pmol/h
Acceptor substrate specificity, pmol/h/µl enzyme fraction ([14C]NeuAc transfer) [10]: 0.5 pmol/h/µL
Acceptor substrate specificity, pmol/h/µl enzyme fraction ([14C]NeuAc transfer) [11]: 35 pmol/h/µL
Acceptor substrate specificity, pmol/h/µl enzyme fraction ([14C]NeuAc transfer) [12]: 28 pmol/h/µL
Acceptor substrate specificity, pmol/h/µl enzyme fraction ([14C]NeuAc transfer) (Ovomucoid): < 0.5 pmol/h

B1: mouse Gal β 1,4GlcNAc α 2,6-sialyltransferase, recombinant soluble form lacking the cytosolic and transmembrane domains (29th amino acid residue to C-terminal … (protein)
chain: GSDYEALTLQAKVFQMPKSQEKVAVGPAPQAVFSNSKQDPKEGVQILSYPRVTAKVKPQPSLQVWDKDSTYSKLNPRLLKIWRNYLNMNKYKVSYKGPGPGVKFSVEALRCHLRDHVNVSMIEATDFPFNTTEWEGYLPKENFRTKAGPWHKCAVVSSAGSLKNSQLGREIDNHDAVLRFNGAPTDNFQQDVGTKTTIRLVNSQLVTTEKRFLKDSLYTEGILILWDPSVYHADIPQWYQKPDYNFFETYKSYRRLHPSQPFYILKPQMPWELWDIIQEISPDLIQPNPPSSGMLGIIIMMTLCDQVDIYEFLPSKRKTDVCYYHQKFFDSACTMGAYHPLLFEKNMVKHLNEGTDEDIYLFGKATLSGFRNNRC
Km [13]: 6500 µM
Km [14]: 80 µM

B2: Rat liver Gal β 1,4GlcNAc α 2,6-sialyltransferase (obtained from Sigma) (Rattus norvegicus) (protein)
chain: MIHTNLKKKFSLFILVFLLFAVICVWKKGSDYEALTLQAKEFQMPKSQEKVAMGSASQVVFSNSKQDPKEDIPILSYHRVTAKVKPQPSFQVWDKDSTYSKLNPRLLKIWRNYLNMNKYKVSYKGPGPGVKFSVEALRCHLRDHVNVSMIEATDFPFNTTEWEGYLPKENFRTKVGPWQRCAVVSSAGSLKNSQLGREIDNHDAVLRFNGAPTDNFQQDVGSKTTIRLMNSQLVTTEKRFLKDSLYTEGILIVWDPSVYHADIPKWYQKPDYNFFETYKSYRRLNPSQPFYILKPQMPWELWDIIQEISADLIQPNPPSSGMLGIIIMMTLCDQVDIYEFLPSKRKTDVCYYHQKFFDSACTMGAYHPLLFEKNMVKHLNEGTDEDIYLFGKATLSGFRNIRC
Km [15]: 5000 µM
Km [16]: 40 µM
